The target of assay [1] is HA-InR^intra (intracellular domain of insulin receptor including the kinase domain) (Drosophila) (UniProt P09208). As to the kind of experiment: proximity ligation.
For assay [2] the target is unchanged. As to the kind of experiment: proximity ligation. The source holds these as a separate data set.

Experimental findings from article PMC6178561 are described below.

Where two headings read alike, the source gives them in different places.

Sequence of UniProt P09208 (P09208 1086-2144): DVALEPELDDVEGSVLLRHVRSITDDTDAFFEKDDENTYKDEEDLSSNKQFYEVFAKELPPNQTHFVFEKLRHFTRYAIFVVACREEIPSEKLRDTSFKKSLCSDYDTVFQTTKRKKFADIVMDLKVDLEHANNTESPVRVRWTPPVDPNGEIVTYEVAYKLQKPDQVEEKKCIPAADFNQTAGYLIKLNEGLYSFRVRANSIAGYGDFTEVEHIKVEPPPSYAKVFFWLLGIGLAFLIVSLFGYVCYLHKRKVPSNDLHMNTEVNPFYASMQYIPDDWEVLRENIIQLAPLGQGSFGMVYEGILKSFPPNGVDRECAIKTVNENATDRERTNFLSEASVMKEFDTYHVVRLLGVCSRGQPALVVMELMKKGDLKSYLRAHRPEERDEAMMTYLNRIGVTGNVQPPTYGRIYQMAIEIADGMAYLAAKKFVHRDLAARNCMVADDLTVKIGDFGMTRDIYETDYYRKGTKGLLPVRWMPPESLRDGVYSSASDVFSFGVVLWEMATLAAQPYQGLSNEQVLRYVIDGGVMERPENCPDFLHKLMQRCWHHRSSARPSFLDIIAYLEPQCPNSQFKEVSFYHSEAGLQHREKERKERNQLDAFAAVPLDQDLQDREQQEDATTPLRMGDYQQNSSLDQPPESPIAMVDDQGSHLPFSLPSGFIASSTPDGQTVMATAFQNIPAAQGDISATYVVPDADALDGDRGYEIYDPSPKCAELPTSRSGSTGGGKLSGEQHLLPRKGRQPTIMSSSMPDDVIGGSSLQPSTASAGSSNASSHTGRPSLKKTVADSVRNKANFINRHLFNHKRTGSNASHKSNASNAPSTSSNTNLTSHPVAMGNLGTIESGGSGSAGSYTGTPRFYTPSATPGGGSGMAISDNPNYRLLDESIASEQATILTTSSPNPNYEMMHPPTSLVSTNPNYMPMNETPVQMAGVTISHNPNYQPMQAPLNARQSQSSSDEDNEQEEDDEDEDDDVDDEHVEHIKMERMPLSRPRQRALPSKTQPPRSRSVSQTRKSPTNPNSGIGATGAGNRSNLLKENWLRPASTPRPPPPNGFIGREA

With “Myc-Hsp83 (heat shock protein 83) (from UniProt P02828 1-717) (natural protein)”, in assay [1], the PLA foci per cell (average) (PLA foci per cell) amounted to 12.8, the percent of cells with PLA signal is 90.9%, the percent of cells with moderate PLA signals (11-30 foci) amounted to 41.8% and the percent of cells with strong PLA signals (>30 foci) was 12.7%. Moreover, the percent of cells with weak PLA signals (≤10 foci) in assay [1] came out at 36.4%.

B1: Myc-Cdc37 (cell division cycle 37) (natural protein)
chain: MVDYSKWKNIEISDDEDDTHPNIDTPSLFRWRHQARVERMAEMDHEKDELKKKRQSYQARLMDVKERISKKDGDEEALKKELEKIEAEGKELDRIESEMIKKEKKTPWNVDTISKPGFEKTVINKKAGRKPDENLSEEEREQRMKQFVKENEKLCQQYGMLRKYDDSKRFLQEHLHLVGEETANYLVIWSINLEMEEKHELMAHVAHQCICMQYILELAKQLDVDPRACVSSFFSKIQHCHPEYRAQFDSEIEGFKGRIQKRAQEKIQEAIAQAEEEERKERLGPGGLDPADVFESLPDELKACFESRDVELLQKTIAAMPVDVAKLHMKRCVDSGLWVPNAADLEGDKKEEDDSDDVAGGEEKTDDAKSESAAKEEPIYTGVSTEDVD
In assay [2], B1 gave a percent of cells with PLA signal of 86.8%, a percent of cells with moderate PLA signals of 31.4%, a percent of cells with strong PLA signals of 4.1% and a percent of cells with weak PLA signals of 51.3%.
